Legend:
[1] = ratio of WT-relative surface to WT-relative total expression; details: glycan lost; control: wild type
[2] = fluorometric membrane depolarization, FlexStation, 37°C; details: glycan lost; control: wild type
[3] = fluorometric membrane depolarization, maximal RFU; details: glycan lost; control: wild type
[4] = fluorometric membrane depolarization, 23°C vs 37°C; details: glycan lost; control: wild type (less sensitive at 23°C than at 37°C)
[5] = whole-cell patch-clamp, maximum amplitude; details: glycan lost; control: wild type
[6] = whole-cell patch-clamp, 37°C; details: glycan lost; control: wild type
[7] = anti-FLAG WB of cell lysates, normalized to total protein; details: glycan lost; control: wild type

Row | Protein | localisation_or_trafficking, other: surface/total ratio relative to WT [1] | other: agonist sensitivity, EC50 [2] | other: maximal channel response, other: mean maximal RFU [3] | other: temperature dependence of agonist sensitivity, EC50 [4] | other: channel current [5] | other: agonist sensitivity, EC50 [6] | expression_or_secretion, fold_change [7]
1 | hTRPA1: N747/753Q (protein) parent chain: MKRSLRKMWRPGEKKEPQGVVYEDVPDDTEDFKESLKVVFEGSAYGLQNFNKQKKLKRCDDMDTFFLHYAAAEGQIELMEKITRDSSLEVLHEMDDYGNTPLHCAVEKNQIESVKFLLSRGANPNLRNFNMMAPLHIAVQGMNNEVMKVLLEHRTIDVNLEGENGNTAVIIACTTNNSEALQILLKKGAKPCKSNKWGCFPIHQAAFSGSKECMEIILRFGEEHGYSRQLHINFMNNGKATPLHLAVQNGDLEMIKMCLDNGAQIDPVEKGRCTAIHFAATQGATEIVKLMISSYSGSVDIVNTTDGCHETMLHRASLFDHHELADYLISVGADINKIDSEGRSPLILATASASWNIVNLLLSKGAQVDIKDNFGRNFLHLTVQQPYGLKNLRPEFMQMQQIKELVMDEDNDGCTPLHYACRQGGPGSVNNLLGFNVSIHSKSKDKKSPLHFAASYGRINTCQRLLQDISDTRLLNEGDLHGMTPLHLAAKNGHDKVVQLLLKKGALFLSDHNGWTALHHASMGGYTQTMKVILDTNLKCTDRLDEDGNTALHFAAREGHAKAVALLLSHNADIVLNKQQASFLHLALHNKRKEVVLTIIRSKRWDECLKIFSHNSPGNKCPITEMIEYLPECMKVLLDFCMLHSTEDKSCRDYYIEYNFKYLQCPLEFTKKTPTQDVIYEPLTALNAMVQNNRIELLNHPVCKEYLLMKWLAYGFRAHMMNLGSYCLGLIPMTILVVNIKPGMAFNSTGIINETSDHSEILDTTNSYLIKTCMILVFLSSIFGYCKEAGQIFQQKRNYFMDISNVLEWIIYTTGIIFVLPLFVEIPAHLQWQCGAIAVYFYWMNFLLYLQRFENCGIFIVMLEVILKTLLRSTVVFIFLLLAFGLSFYILLNLQDPFSSPLLSIIQTFSMMLGDINYRESFLEPYLRNELAHPVLSFAQLVSFTIFVPIVLMNLLIGLAVGDIAEVQKHASLKRIAMQVELHTSLEKKLPLWFLRKVDQKSTIVYPNKPRSGGMLFHIFCFLFCTGEIRQEIPNADKSLEMEILKQKYRLKDLTFLLEKQHELIKLIIQKMEIISETEDDDSHCSFQDRFKKEQMEQRNSRWNTVLRAVKAKTHHLEP | no change | decreases, 20.9 vs 9.5 | no change, 866 vs 1155 | changes, 14.8 vs 13.5 | no change | decreases, 142.3 vs 35.0 | decreases
2 | hTRPA1: N753Q (protein) parent chain: MKRSLRKMWRPGEKKEPQGVVYEDVPDDTEDFKESLKVVFEGSAYGLQNFNKQKKLKRCDDMDTFFLHYAAAEGQIELMEKITRDSSLEVLHEMDDYGNTPLHCAVEKNQIESVKFLLSRGANPNLRNFNMMAPLHIAVQGMNNEVMKVLLEHRTIDVNLEGENGNTAVIIACTTNNSEALQILLKKGAKPCKSNKWGCFPIHQAAFSGSKECMEIILRFGEEHGYSRQLHINFMNNGKATPLHLAVQNGDLEMIKMCLDNGAQIDPVEKGRCTAIHFAATQGATEIVKLMISSYSGSVDIVNTTDGCHETMLHRASLFDHHELADYLISVGADINKIDSEGRSPLILATASASWNIVNLLLSKGAQVDIKDNFGRNFLHLTVQQPYGLKNLRPEFMQMQQIKELVMDEDNDGCTPLHYACRQGGPGSVNNLLGFNVSIHSKSKDKKSPLHFAASYGRINTCQRLLQDISDTRLLNEGDLHGMTPLHLAAKNGHDKVVQLLLKKGALFLSDHNGWTALHHASMGGYTQTMKVILDTNLKCTDRLDEDGNTALHFAAREGHAKAVALLLSHNADIVLNKQQASFLHLALHNKRKEVVLTIIRSKRWDECLKIFSHNSPGNKCPITEMIEYLPECMKVLLDFCMLHSTEDKSCRDYYIEYNFKYLQCPLEFTKKTPTQDVIYEPLTALNAMVQNNRIELLNHPVCKEYLLMKWLAYGFRAHMMNLGSYCLGLIPMTILVVNIKPGMAFNSTGIINETSDHSEILDTTNSYLIKTCMILVFLSSIFGYCKEAGQIFQQKRNYFMDISNVLEWIIYTTGIIFVLPLFVEIPAHLQWQCGAIAVYFYWMNFLLYLQRFENCGIFIVMLEVILKTLLRSTVVFIFLLLAFGLSFYILLNLQDPFSSPLLSIIQTFSMMLGDINYRESFLEPYLRNELAHPVLSFAQLVSFTIFVPIVLMNLLIGLAVGDIAEVQKHASLKRIAMQVELHTSLEKKLPLWFLRKVDQKSTIVYPNKPRSGGMLFHIFCFLFCTGEIRQEIPNADKSLEMEILKQKYRLKDLTFLLEKQHELIKLIIQKMEIISETEDDDSHCSFQDRFKKEQMEQRNSRWNTVLRAVKAKTHHLEP | no change | no change, 10.5 vs 9.5 | no change, 902 vs 1155 | no change, 18.0 vs 13.5 | no change | no change, 42.0 vs 35.0 | decreases
3 | hTRPA1: N747Q (protein) parent chain: MKRSLRKMWRPGEKKEPQGVVYEDVPDDTEDFKESLKVVFEGSAYGLQNFNKQKKLKRCDDMDTFFLHYAAAEGQIELMEKITRDSSLEVLHEMDDYGNTPLHCAVEKNQIESVKFLLSRGANPNLRNFNMMAPLHIAVQGMNNEVMKVLLEHRTIDVNLEGENGNTAVIIACTTNNSEALQILLKKGAKPCKSNKWGCFPIHQAAFSGSKECMEIILRFGEEHGYSRQLHINFMNNGKATPLHLAVQNGDLEMIKMCLDNGAQIDPVEKGRCTAIHFAATQGATEIVKLMISSYSGSVDIVNTTDGCHETMLHRASLFDHHELADYLISVGADINKIDSEGRSPLILATASASWNIVNLLLSKGAQVDIKDNFGRNFLHLTVQQPYGLKNLRPEFMQMQQIKELVMDEDNDGCTPLHYACRQGGPGSVNNLLGFNVSIHSKSKDKKSPLHFAASYGRINTCQRLLQDISDTRLLNEGDLHGMTPLHLAAKNGHDKVVQLLLKKGALFLSDHNGWTALHHASMGGYTQTMKVILDTNLKCTDRLDEDGNTALHFAAREGHAKAVALLLSHNADIVLNKQQASFLHLALHNKRKEVVLTIIRSKRWDECLKIFSHNSPGNKCPITEMIEYLPECMKVLLDFCMLHSTEDKSCRDYYIEYNFKYLQCPLEFTKKTPTQDVIYEPLTALNAMVQNNRIELLNHPVCKEYLLMKWLAYGFRAHMMNLGSYCLGLIPMTILVVNIKPGMAFNSTGIINETSDHSEILDTTNSYLIKTCMILVFLSSIFGYCKEAGQIFQQKRNYFMDISNVLEWIIYTTGIIFVLPLFVEIPAHLQWQCGAIAVYFYWMNFLLYLQRFENCGIFIVMLEVILKTLLRSTVVFIFLLLAFGLSFYILLNLQDPFSSPLLSIIQTFSMMLGDINYRESFLEPYLRNELAHPVLSFAQLVSFTIFVPIVLMNLLIGLAVGDIAEVQKHASLKRIAMQVELHTSLEKKLPLWFLRKVDQKSTIVYPNKPRSGGMLFHIFCFLFCTGEIRQEIPNADKSLEMEILKQKYRLKDLTFLLEKQHELIKLIIQKMEIISETEDDDSHCSFQDRFKKEQMEQRNSRWNTVLRAVKAKTHHLEP | increases |  | no change, 947 vs 1155 | changes, 18.2 vs 13.5 | no change | decreases, 141.0 vs 35.0 | decreases
